Data: publication PMC11986105 (2025)
Several values for one entry are separate records, joined by “and”; a condition that tells them apart may be missing. Equal entries are not always repeated. Ends that are not written are not given here.

How the values were obtained:
[1] = target: T1, E. coli K-12 BamA β-barrel (residues 421–810), N-terminally biotinylated (E. coli K-12 (strain MG1655), UniProt P0A940 421-810, biotin on the N-terminal Avitag (BirA ligase)); assay: SPR
[2] = target: T1, E. coli K-12 BamA β-barrel (residues …); assay: SPR; remark: listed apart in the source
[3] = target: T1, E. coli K-12 BamA β-barrel (residues …); assay: SPR; apparent, BamA pre-equilibrated with 2 uM darobactin

Row | Binder | Kd [1] | koff [2] | Kd [3]
1 | FLWFYHRPVRGFDCG (also: cyclic peptide, closure not given here) [cyclic peptide CP1] | 6.6 nM and ~8 nM | 0.0023 s⁻¹ | ~5 nM
2 | WNWSKSF (also: post-translationally formed bicyclic ring structures) [darobactin] | – | 0.012 s⁻¹ | –
